# Measured values taken from the supplement of paper PMC10724198.
# ± gives the standard deviation of the averaged measurements.
# Tested on: Saccharomyces cerevisiae
# Assay: protein stability index of tFT-peptide fusion (C-terminal peptide) (PSI (0-1 scale)); higher = more stable (slower turnover)
# Settings: genetic background: wild type; temperature: 30 C
# 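Note: PSI is a weighted mean of sequencing reads over stability bins, variants kept only with over 10 reads, mCherry proximal and sfGFP distal, peptide attached via GGGS linker.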
row,Sequence,protein stability index
1,PAVRGEMYLGVG,0.685 ± 0.014
2,LCPNFFFFSSSP,0.75 ± 0.017
3,PPSVPPPLPHPV,0.74 ± 0.037
4,LPHPPPLPTPPP,0.739 ± 0.13
5,GGLLLPCGAFGG,0.673 ± 0.06
6,HVVVSPRSNRIL,0.7429 ± 0.0055
7,LFGPRCTSSSAV,0.689 ± 0.015
8,VLEGAWPGAEAV,0.722 ± 0.083
9,HTYKADSLYTAR,0.748 ± 0.015
10,GMQVRNTKERRG,0.714 ± 0.02
11,ATPVPTPRPAAP,0.729 ± 0.048
12,LETEVDIYWLYR,0.605 ± 0.048
13,TAQKHQQPVQLH,0.715 ± 0.028
14,SQKWKGSSVIIG,0.723 ± 0.032
15,NGLLRPALVPNY,0.693 ± 0.012
16,TRTRSMTQLVPL,0.716 ± 0.068
17,PSPPYPPPSLPH,0.69 ± 0.044
18,SLSLHALPRPTT,0.655 ± 0.029
19,LPRRDPGPSKEP,0.66644 ± 0.00038
20,RRRQARGANAHS,0.7 ± 0.013
21,KEGKGRGDGGRE,0.697 ± 0.018
22,RNARSPACRTRR,0.7481 ± 0.0052
23,PTSDSPSLALPC,0.71 ± 0.023
24,TMEKKAKKRIKK,0.682 ± 0.23
25,SDGVSLRSFCWL,0.697 ± 0.035
26,FFFFPFLPFSWF,0.507 ± 0.0084

row,Sequence,protein stability index
1,GGAGSVAGVWAV,0.673 ± 0.069
2,GNVNCNLRRYYI,0.766 ± 0.086
3,LLRRFSLLPPPL,0.667 ± 0.035
4,ISLVMLLKDAWR,0.695 ± 0.019
5,PAPPPVLDTPLP,0.6018 ± 0.0057
6,SRRNRIYSHTSS,0.666 ± 0.025
7,TIVRTTLLEIWR,0.619 ± 0.04
8,RGGVRGAIHSDL,0.7039 ± 0.0025
9,PLPLPLPQTLPP,0.6958 ± 0.0067
10,VGGWGGFGLFFP,0.742 ± 0.098
11,PITSPPQVLLQH,0.686 ± 0.033
12,PHLAPPPGPLHP,0.7233 ± 0.0024
13,AKKAEKQKKEKT,0.82 ± 0.019
14,GAVLELCRADGG,0.651 ± 0.0082
15,YYCLRVRTINRR,0.703 ± 0.011
16,PPLAPPTPHPLS,0.716 ± 0.029
17,LCLFRSCVHSSA,0.616 ± 0.049
18,RALPSPPPCPPG,0.524 ± 0.031
19,PPLPLPPPHPPP,0.503 ± 0.047
20,SPHTRPDPPPLP,0.681 ± 0.071
21,GYNARHILGRVG,0.699 ± 0.011
22,GGGPPARRRRGA,0.652 ± 0.023
23,IAAPANQGHSKP,0.694 ± 0.042
24,VCAEGAAYSDKA,0.646 ± 0.038
25,IDLVLCIGLGYQ,0.62 ± 0.063
26,EHQNHNTARKRH,0.69835 ± 0.00027

row,Sequence,protein stability index
1,GYLPPPDSLSSS,0.672 ± 0.023
2,PGRYTDCCLPNR,0.682 ± 0.022
3,ARGKYKKLKIKE,0.733 ± 0.018
4,VLMGAGGHSWER,0.725 ± 0.037
5,FVWRVGGVRRGV,0.758 ± 0.09
6,SDRSLPGVPVRF,0.7234 ± 0.0048
7,GGCGGVGGACVV,0.738 ± 0.086
8,NRYRILDKLRRK,0.6618 ± 0.0026
9,YFRYGLELVTFG,0.5004 ± 0.0013
10,RFCGSGPIVPGQ,0.707 ± 0.019
11,IRSLPYVGVFIE,0.587 ± 0.036
12,NKKKKKKRNGAP,0.658 ± 0.028
13,PSPPPPPPTTVL,0.718 ± 0.021
14,PFPPLPLPLPLP,0.7123 ± 0.00013
15,PPPLSCPSRPSL,0.526 ± 0.12
16,GVWCLDVYGRRC,0.6837 ± 0.0022
17,ERGEEESGRSGS,0.7225 ± 0.0046
18,LDGAHLLLNTIP,0.687 ± 0.039
19,LRTPNIYLSFSP,0.666 ± 0.1
20,GGFGVLGLGVVG,0.6963 ± 0.0058
21,ALSCLVCLFGLL,0.545 ± 0.054
22,LFRPFATALFPL,0.747 ± 0.066
23,MGCSARLPLLSS,0.7215 ± 0.0016
24,YTWVDKNDRTKR,0.736 ± 0.11
25,SANCQQSRMFIT,0.623 ± 0.044
26,LMGGMIRDMVWG,0.643 ± 0.13

row,Sequence,protein stability index
1,PLHPPPPPPPHP,0.717 ± 0.064
2,LYIHFIRSYPTI,0.6354 ± 0.0036
3,RRLEPGVAWFPT,0.661 ± 0.01
4,VSRVDGAGHSAV,0.66 ± 0.0088
5,ALPLSPRTHRCS,0.503 ± 0.097
6,THLDKLYPKEHT,0.689 ± 0.054
7,GAHVAVFRQRGR,0.678 ± 0.083
8,DPRPHPPFARSP,0.699 ± 0.026
9,LVFSSVVISCDI,0.528 ± 0.0092
10,HSGDLYFWGCRD,0.706 ± 0.061
11,ARGALPHHVSCV,0.691 ± 0.11
12,PPHPHNPRPSTP,0.6548 ± 0.0046
13,ALEAAWGGLGGS,0.695 ± 0.013
14,VRRWGKWSIVGW,0.736 ± 0.03
15,PPPLSPSFIPPP,0.698 ± 0.042
16,GVVCWRFLLADV,0.596 ± 0.028
17,LILRPLPPPLPP,0.5623 ± 0.0014
18,GLSRAWVAGVRG,0.735 ± 0.037
19,SPGLLPPPTSAF,0.71 ± 0.017
20,SISVLSSSSLGF,0.741 ± 0.12
21,PPSSFHFVVPHP,0.684 ± 0.054
22,PSLPLPSPPPFP,0.643 ± 0.1
23,IFWGFSFRGWGG,0.684 ± 0.0086
24,LPVLPPLSPSPF,0.665 ± 0.011
25,RIAWTKEKMGKT,0.661 ± 0.024
26,GGVVGVMWGGVR,0.624 ± 0.029

row,Sequence,protein stability index
1,LHHPPAPPLPPP,0.695 ± 0.018
2,SGWSWLGLRSGL,0.738 ± 0.025
3,EENGAGVSVGKL,0.653 ± 0.0085
4,GKKKVKEWKKQM,0.604 ± 0.025
5,NLQKTRNRRTVE,0.643 ± 0.011
6,PPPPPPFLPRLP,0.721 ± 0.14
7,HYRSNFGRDSNL,0.762 ± 0.082
8,EASGPGPGAKAT,0.6526 ± 0.0026
9,GHVGFSKVSGKG,0.664 ± 0.026
10,IRGCSGSDKNKS,0.643 ± 0.047
11,NGDRGQWGMNQR,0.708 ± 0.028
12,VYVFGCVVGSGW,0.639 ± 0.032
13,GGCKSLYFEWGR,0.734 ± 0.01
14,SSVVPITLPAFL,0.707 ± 0.019
15,LPAAPPPPPLPP,0.742 ± 0.042
16,PGPKAAHSKRDR,0.662 ± 0.058
17,NLGRGYLVFRGM,0.709 ± 0.062
18,LRGSCFSLWLVF,0.526 ± 0.031
19,DFSLRCIAIPRV,0.651 ± 0.046
20,CLMHTENCIRKA,0.674 ± 0.032
21,GYLVECKRLCVW,0.588 ± 0.024
22,AGAWVREVVGWG,0.707 ± 0.014
23,WEVLGGFVWASC,0.6828 ± 0.0045
24,LPLLALLDVPLP,0.683 ± 0.018
25,PNHGEYRNGLYV,0.715 ± 0.11
26,VWRHSGRVASLA,0.624 ± 0.0098

row,Sequence,protein stability index
1,GCEVRTFMNSSG,0.697 ± 0.016
2,LGVPGSGDGEWW,0.592 ± 0.029
3,PPPPVPSLLLLS,0.579 ± 0.019
4,FELTSATWRGCF,0.685 ± 0.094
5,HPVPFSVASHLN,0.645 ± 0.03
6,AAHRRRRSPPRP,0.5909 ± 0.0014
7,SSPAPPPLLLPS,0.7047 ± 0.00088
8,FPLFRSLLLFAP,0.5331 ± 0.00081
9,KNTKRQIKKNKK,0.662 ± 0.17
10,GSVGQNLCPGSI,0.667 ± 0.031
11,VFVRSTSFLFFG,0.678 ± 0.0097
12,RGPRVVYYRLYV,0.722 ± 0.12
13,PIPPLPSSRLGV,0.602 ± 0.037
14,RRGAPSYATLAL,0.637 ± 0.0073
15,YRLAPPPHPPPP,0.576 ± 0.021
16,GPRTPPKPRQVP,0.616 ± 0.024
17,GIMFVSEPVLSS,0.664 ± 0.0025
18,VLLLLPASTPSL,0.696 ± 0.079
19,GDWSYIVGIKYY,0.626 ± 0.0078
20,SLDFTERHALAC,0.709 ± 0.031
21,FVAPPLCMPLSR,0.704 ± 0.04
22,AKLFSEGLQMHH,0.729 ± 0.049
23,PPVPSLFPPPPH,0.674 ± 0.038
24,ICEYGLKRKIHF,0.68199 ± 0.0006
25,GLRPPPLRPAPP,0.704 ± 0.08
26,LHGFYSKKAINR,0.701 ± 0.031

row,Sequence,protein stability index
1,GSVTLTLLRPPS,0.753 ± 0.086
2,RGALGGGSNRLA,0.788 ± 0.26
3,LPPPGSSPRATS,0.718 ± 0.06
4,WVLFRNKSVAAS,0.527 ± 0.012
5,PLLHPTGFMGFP,0.74 ± 0.028
6,RVLCYHFSPGVV,0.656 ± 0.057
7,DRRVSYKKKKRK,0.672 ± 0.14
8,DPKNEINAKENI,0.689 ± 0.069
9,WFSSPVTISTRK,0.692 ± 0.11
10,LIVSTAGVTQFS,0.66 ± 0.012
11,YFGGMGARGRER,0.687 ± 0.0081
12,PLPPPPRPPLRP,0.6941 ± 0.0052
13,PSPLSPEHPLPI,0.72334 ± 0.00035
14,NKNRKNQNKGKR,0.743 ± 0.069
15,TERGRLVWYCMR,0.674 ± 0.077
16,AGWPWAGRSCWG,0.728 ± 0.044
17,LIWHTLSTVIPF,0.657 ± 0.029
18,PPHLSPPPPPLL,0.6987 ± 0.0054
19,GGWGSRGRVGDI,0.744 ± 0.045
20,SVPRPPPPRAPL,0.646 ± 0.17
21,EIGGYHLGWAKC,0.636 ± 0.022
22,THHPQRPPRTLP,0.745 ± 0.062
23,QPHPPRAVLTGP,0.6975 ± 0.005
24,YDLLLLLSLSRP,0.644 ± 0.012
25,PTSPPPPPASPS,0.836 ± 0.18
26,CPPLEWSLRYPV,0.722 ± 0.017

row,Sequence,protein stability index
1,PLSPSLPNPCSL,0.706 ± 0.0079
2,WWGGGGGMQGVR,0.674 ± 0.0096
3,PPIRLPSPLLPH,0.7123 ± 0.0056
4,FYKKKIRRGVNV,0.661 ± 0.038
5,SSPLVHWFSYLS,0.682 ± 0.023
6,LLGGLHIPHPLR,0.681 ± 0.052
7,RVRGAPGLRHES,0.5 ± 0.1
8,SWRRRNGNCERR,0.646 ± 0.063
9,TPWLRGVVGPGS,0.671 ± 0.083
10,KTFRTYRTYFRK,0.682 ± 0.023
11,DVGWRVFVFGGL,0.704 ± 0.038
12,PSFPSSPSPVTL,0.69 ± 0.035
13,SRRKMRILQIVD,0.623 ± 0.092
14,SGVVGLSTSGVV,0.695 ± 0.063
15,RYHPRSHVLGRD,0.682 ± 0.063
16,GDDCQYLVVPVR,0.701 ± 0.052
17,LWLPSTSLIPLI,0.641 ± 0.018
18,GVYWGEIDDVER,0.717 ± 0.015
19,VVGFVPVWRAGS,0.593 ± 0.031
20,HPPLPPPLPGSP,0.761 ± 0.049
